Reference: patent US20190248902A1 (published 2019)
Positions count from the first letter of the chain named.

T1: Rat ASGR-1 (rat, UniProt P02706 1-284)
T1 construct: Expressed on HEK 293 cells or as membrane prep on beads; cDNA GenBank NM_012503
T1 sequence: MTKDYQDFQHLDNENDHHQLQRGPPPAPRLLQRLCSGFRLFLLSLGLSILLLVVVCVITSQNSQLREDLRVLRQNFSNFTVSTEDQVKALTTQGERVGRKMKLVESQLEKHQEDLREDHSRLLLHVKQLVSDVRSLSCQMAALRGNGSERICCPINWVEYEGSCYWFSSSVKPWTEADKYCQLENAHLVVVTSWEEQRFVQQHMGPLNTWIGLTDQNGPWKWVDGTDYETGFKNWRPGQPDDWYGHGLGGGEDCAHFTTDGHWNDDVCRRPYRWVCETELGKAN

T2: Dog ASGR-1 (dog)
T2 construct: Expressed on HEK 293 cells or as membrane prep on beads; cDNA GenBank XM_546579
T2 chain: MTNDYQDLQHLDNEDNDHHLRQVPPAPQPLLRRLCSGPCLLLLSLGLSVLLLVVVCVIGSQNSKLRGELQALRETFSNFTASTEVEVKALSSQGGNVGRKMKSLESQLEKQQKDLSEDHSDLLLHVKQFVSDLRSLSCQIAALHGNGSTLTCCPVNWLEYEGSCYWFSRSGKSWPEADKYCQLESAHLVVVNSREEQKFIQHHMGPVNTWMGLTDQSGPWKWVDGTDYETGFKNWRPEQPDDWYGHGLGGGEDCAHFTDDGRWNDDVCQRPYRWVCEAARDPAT

T3: Mouse ASGR-1 (mouse, UniProt P34927 1-284)
T3 construct: Expressed on HEK 293 cells or as membrane prep on beads; cDNA GenBank BC022106.1; also called muASGR-1; mASGR-1
T3 sequence: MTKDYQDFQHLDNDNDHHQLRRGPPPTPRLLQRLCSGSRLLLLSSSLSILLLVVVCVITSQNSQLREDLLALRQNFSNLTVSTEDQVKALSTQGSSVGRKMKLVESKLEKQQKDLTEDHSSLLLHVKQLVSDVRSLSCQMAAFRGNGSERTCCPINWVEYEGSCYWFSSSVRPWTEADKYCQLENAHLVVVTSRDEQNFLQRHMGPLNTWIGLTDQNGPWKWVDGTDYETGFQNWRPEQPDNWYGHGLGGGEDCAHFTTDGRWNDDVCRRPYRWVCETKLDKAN

B1: 194A4 (antibody, V domains shown)
VH: QVQLVQSGTEVKKPGASLKVSCKASGYTFTVYYLNWVRQAPGQGLEWMGWINPNSGGTNYAQKFQGRVTMTRDTSISTAYMELSRLRSDDTAVYYCARGYDILTGWGQGTLVTVSS
VL: EIVLTQSPGTLSLSPGERATLSCRASRGVSNIYLAWYQQKPGQAPRLLIYGASNRATGIPDRFSGSGSGTDFTLTISRLEPEDFAVYYCQHNDYSMFTFGPGTKVDIK
notes: Tested as hybridoma supernatant at normalized concentration
B2: 190F8 (antibody, V domains shown)
VH: QVQLVESGGGVVQPGRSLRLSCAASGFTFSTYGMHWVRQAPGKGLEWVAVIWYDGSNKNYADSVKGRFTISRDNSKNTLYLQMNSLRAEDTAVYYCARDQGVGYDGLDVWGQGTTVTVSS
VL: DIQMTQSPSSLSASVGDRVTITCRTSQGIGNYLAWFQQKPGKAPKSLLYKASSLQSGVPSKFSGSGSGTDFTLTISSLQPEDFATYYCQQYMTYPLTFGGGTKVEIK
notes: as for B1
B3: 191G1 (antibody, V domains shown)
VH: B2 VH with T31S, K58E, N59H, Q100R, D105Y
VL: B2 VL with T25A, G30S, L48I, K50A, Q90H, M92L
notes: as for B1
B4: 191G10 (antibody, V domains shown)
VH: B2 VH with T31S
VL: B2 VL with N31K, A51V
notes: as for B1
B5: 198G3 (antibody, V domains shown)
VH: B2 VH with R19K, S56T, Y80C
VL: B2 VL with T5A, N31K, S56G
notes: as for B1
B6: 194C1 (antibody, V domains shown)
VH: B2 VH with T31S, K58E, N59H, D99N, Q100R, D105Y
VL: B2 VL with T25A, G30S, L48I, K50A, Q89L, Q90H, M92L
notes: as for B1
B7: 197G3 (antibody, V domains shown)
VH: B2 VH with A23V, T31S, Y32H, Q100P, G101S, L107M
VL: DIQMTQSPSSLSASVGDRVTITCRASQGIGNHLAWFQQKPGKAPKSLIYAASSLQSGVPSKFSGSRSGTDFSLTISSLQPEDFATYYCQQYSNYPVTFGPGTKVDIK
notes: as for B1
B8: 75G3 (antibody, V domains shown)
VH: QVQLQQWGAGLLKPSETLSLTCAVYGGSLSGSYWSWIRQPPGKGLEWIGEINLSGSTNYNPSLKSRVTISVDTSKSQFSLTLRSVTAADTAVYYCARDYGGLDYWGQGTLVTVSS
VL: EIVLTQSPGTLSLSPGERATLSCRARQNVDSSYLAWYQQKPGQAPRLLIYGASSRATGIPDRFSGSGSGTDFTLTISRLEPEDFAVFYCQQYERSPWTFGQGTKVEIK
notes: as for B1
B9: 218G4 (antibody, V domains shown)
VH: QVQLVESGGGVVQPGRSLRLSCAASGFTFSSYGLHWVRQAPGKGLEWVAVIWYDGSNKYYADSVKGRFTISRDNSKNTLYLQMNSLRVEDTAVYYCANWYYYYYGMDVWGQGTTVTVSS
VL: QSVLTQPPSVSAAPGQKVTISCSGSSSNIGNNYVSWYQQLPGTAPKLLLYDSNKRPSGIPARFSGSKSGTSATLGITGLQTGDEADYYCGTWDSSLNTVVFGGGTKLTVL
notes: as for B1
B10: 202A3 (antibody, V domains shown)
VH: QVQLEQSGAEVKKPGASVKVSCKASGYTFTSYDINWVRQATGQGLEWLGWMNPKRGNTGYAQKFQGRVTMTRNTSISTAHMELSSLRSEDTAVYYCARGRYSREDYYYYYDMDVWGQGTTVTVSS
VL: DIQMSQSPSSLSASVGDRVTITCRASQGIRNDLGWYQQKPGKAPKRLICAASRLQSGVPSRFSGSGSGTEFTLTISSLQPEDFAIYYCLQHHDYPFTFGPGTKVDIK
notes: as for B1
B11: 176H4 (antibody, V domains shown)
VH: QVQLVESGGGVVQPGRSLRLSCAASGFTFSSYGMHWVRQAPGKGLEWVAIIWYDGSYKYYADSVKGRFTISRDNSKNTLYLQMSSLRAEDTAVYYCARDAHDFWSGYFAYWGQGALVTVSS
VL: DIVMTQTPLSLSVTPGQPASISCKSSQSLLHGDGKTYLYWYLQKPGQPPQLLIYEVSNRFSGVPDRFSGSGSGTDFTLKISRVEAEDVGIYYCMQSIQIPWTFGQGTRVEIK
notes: as for B1
B12: 194C10 (antibody, V domains shown)
VH: QVQLQQWGAGLLKPSETLSLTCAVSGGSFRYYYWSWIRQPPGKGLEWFGEINHSGSTNYNPSLKSRVTISIDTSKNQFSLKLRSVTAADTAVYYCARDYGAFDIWGQGTMVTVSS
VL: EIVLTQSPGTLSLSPGERATLSCRASPSVNSGYLAWYQQKPGQTPRLLIFGASSRATGIPDRFSASGSGADFTLTISRLEPEDFAVYFCQQYESSPWTFGQGTKVEIK
notes: as for B1
B13: 7E11 (antibody, V domains shown)
VH: QVQLVESGGGVVQPGRSLRLSCAASGFTFSSFGMHWVRQAPGKGLEWVAIIWHDGSNKYYADSVKGRFTISRDNSNNTLYLQMSSLRAEDTAVYYCARDLSMGGMDVWGQGTTVTVSS
VL: DIQMTQSPSSLSASVGDRVTIACRASQNIISYLNWYQQKPGKAPKFLIYTASSLQSGVPSRFSGSGSGTDFTLTISSLQPEDFAIYYCQQTYSTPLTFGGGTKVEIK
notes: as for B1
B14: 7G4 (antibody, V domains shown)
VH: QVQLVESGGGVVQPGRSLRLSCAASGFTFNNYVMHWVRQAPGKGLEWVAVIWYDGSNKYYADSVKGRFTISRDNSKNTLYLQMTSLRAEDTAVYYCAREKYSSNWYDYGMDVWGQGTTVTVSS
VL: DIQMTQSPSSLSASVGDRVTITCRASQGIRNDLGWYQQRPGKAPKRLIYAASSLQSGVPSRFSGSGSGTEFTLTISSLQPEDSATYYCLHQYSYPRTFGQGTKVEIK
notes: as for B1

Each binder was assayed against T1, Rat ASGR-1 (assay: FACS on transfected HEK 293 cells or membrane preps on beads; Y = signal at least 2x irrelevant IgG).
Summary of the method: (§1)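 Antibodies at normalized concentrations bound 1 h at 4° C to HEK 293 cells expressing each antigen, then Alexa Fluor 647 anti-Fc plus 7-AAD 15 min at 4° C, flow cytometry; empty-vector cells as negative. Alternatively, species ASGR-1 membrane preps on streptavidin beads, antibody 1 h RT, Alexa Fluor 488 anti-Fc; FACS buffer with 1 mM CaCl2 throughout.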
B1: binds.

Target: T2, Dog ASGR-1
Test: as above
Summary of the method: as §1
B2: binds. B3: binds. B4: binds. B5: binds. B6: binds. B7: binds. B8: binds. B9: binds. B10: binds. B11: binds. B12: binds. B1: binds.

Each binder was assayed against T3, Mouse ASGR-1 (assay: FACS on transfected HEK 293 cells or membrane preps on beads; binding = signal at least 2x irrelevant IgG).
Experimental: (§2) Human ASGR-1-specific, ligand competing antibody samples were tested for binding to ASGR-1 from other species (cynomologus monkey ASGR-1, mouse ASGR-1, rat ASGR-1, dog ASGR-1, and pig ASGR-1) as well as to human ASGR-2 in FACS binding assays at normalized antibody concentrations. For cell-based assays, HEK 293 cells expressing the appropriate antigen of interest were mixed with antibody sample or controls, incubated for 1 hour at 4° C., and then washed twice. Cells with bound antibody were then incubated with Alexa Fluor® 647 IgG Fc fragment-specific detection antibody and 7-AAD viability stain for 15 minutes at 4° C., washed once and resuspended in FACS buffer. Samples were analyzed using a BD Accuri™ Flow Cytometer and an Intellicyt HyperCyt Autosampler. As a negative control, supernatants and controls were also screened against HEK 293 cells transfected with empty parental vector. […] For membrane-prep binding assays, ASGR-1 species specific membrane preps were used to coat LumAvidin® microspheres (beads) and tested for binding to selected hybridoma supernatants or controls. Briefly, ASGR-1 species specific membrane preps were incubated with streptavidin-coated LumAvidin® beads for 45 minutes in the dark at room temperature and washed twice. Beads were resuspeneded in FACS buffer containing Stabilguard®. Antigen-bound beads were then incubated with normalized antibody sample for 1 hour in the dark at room temperature, washed twice, incubated with Alexa Fluor® 488 IgG Fc fragment-specific detection antibody for 15 minutes in the dark at room temperature, washed once and finally resuspended in FACS buffer. Samples were analyzed using an Intellicyt iQue™ Screener Platform. FACS buffer supplemented with 1 mM Calcium Chloride was used in all steps. As a negative control, supernatants and controls were also screened against a non-ASGR-1 antigen membrane prep coated on the LumAvidin® beads.
B2: no binding. B3: no binding. B4: no binding. B5: no binding. B6: no binding. B7: no binding. B8: no binding. B9: no binding. B10: no binding. B13: no binding. B14: no binding. B11: no binding. B12: no binding. B1: no binding.

These binders were tested against T1, Rat ASGR-1 in the same assay as above.
Experimental: as §2
B2: no binding. B3: no binding. B4: no binding. B5: no binding. B6: no binding. B7: no binding. B8: no binding. B9: no binding. B10: no binding. B13: no binding. B14: no binding. B11: no binding. B12: no binding.

Target: T2, Dog ASGR-1
Test: as above
Experimental: as §2
B13: no binding. B14: no binding.
